Assay results from patent US20150258192A1, “COMPOSITIONS AND METHODS FOR PREVENTING OR TREATING CHRONIC LUNG ALLOGRAFT DYSFUNCTION (CLAD) AND IDIOPATHIC PULMONARY FIBROSIS (IPF)” (priority 2014, published 2015).
No end group written: not given here.

Experiments:
Assay in all cases: Kinase Profiling Assay
Assay type in all cases: biochemical
Conditions in all cases: peptide 100 μM
Rsk4(h) = target: T1, Rsk4(h) (Homo sapiens, UniProt Q9UK32)
T1 construct: purchased Millipore
In short: (§1)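 In this 266-kinase specificity panel, every measurement was duplicated. Transfer of labeled phosphate from ATP to a cationic substrate was quantified after the substrate adhered to an anionic filter membrane and was scintillation-counted, then related to a full-activity control.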

MST1(h) = target: T2, MST1(h) (Homo sapiens, UniProt Q13043)
T2 construct: purchased Millipore
T2 sequence (Q13043 1-487): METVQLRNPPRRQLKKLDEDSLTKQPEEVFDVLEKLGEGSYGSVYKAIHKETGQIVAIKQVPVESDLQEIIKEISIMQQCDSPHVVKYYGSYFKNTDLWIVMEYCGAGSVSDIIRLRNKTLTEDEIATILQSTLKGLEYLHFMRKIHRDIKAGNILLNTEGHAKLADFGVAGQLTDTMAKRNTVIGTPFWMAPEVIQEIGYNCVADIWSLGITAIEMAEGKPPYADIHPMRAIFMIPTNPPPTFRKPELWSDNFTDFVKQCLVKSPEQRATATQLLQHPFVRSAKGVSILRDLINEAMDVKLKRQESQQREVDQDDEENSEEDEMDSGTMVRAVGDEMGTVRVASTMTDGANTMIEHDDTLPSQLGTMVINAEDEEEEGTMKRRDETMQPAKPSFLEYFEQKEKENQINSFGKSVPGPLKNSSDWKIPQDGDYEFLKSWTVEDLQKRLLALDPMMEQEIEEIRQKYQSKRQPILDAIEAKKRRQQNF
In short: as §1

Syk(h) = target: T3, Syk(h) (Homo sapiens, UniProt P43405)
T3 construct: purchased Millipore
In short: as §1

EphB3(h) = target: T4, EphB3(h) (Homo sapiens, UniProt P54753)
T4 sequence (P54753 34-998): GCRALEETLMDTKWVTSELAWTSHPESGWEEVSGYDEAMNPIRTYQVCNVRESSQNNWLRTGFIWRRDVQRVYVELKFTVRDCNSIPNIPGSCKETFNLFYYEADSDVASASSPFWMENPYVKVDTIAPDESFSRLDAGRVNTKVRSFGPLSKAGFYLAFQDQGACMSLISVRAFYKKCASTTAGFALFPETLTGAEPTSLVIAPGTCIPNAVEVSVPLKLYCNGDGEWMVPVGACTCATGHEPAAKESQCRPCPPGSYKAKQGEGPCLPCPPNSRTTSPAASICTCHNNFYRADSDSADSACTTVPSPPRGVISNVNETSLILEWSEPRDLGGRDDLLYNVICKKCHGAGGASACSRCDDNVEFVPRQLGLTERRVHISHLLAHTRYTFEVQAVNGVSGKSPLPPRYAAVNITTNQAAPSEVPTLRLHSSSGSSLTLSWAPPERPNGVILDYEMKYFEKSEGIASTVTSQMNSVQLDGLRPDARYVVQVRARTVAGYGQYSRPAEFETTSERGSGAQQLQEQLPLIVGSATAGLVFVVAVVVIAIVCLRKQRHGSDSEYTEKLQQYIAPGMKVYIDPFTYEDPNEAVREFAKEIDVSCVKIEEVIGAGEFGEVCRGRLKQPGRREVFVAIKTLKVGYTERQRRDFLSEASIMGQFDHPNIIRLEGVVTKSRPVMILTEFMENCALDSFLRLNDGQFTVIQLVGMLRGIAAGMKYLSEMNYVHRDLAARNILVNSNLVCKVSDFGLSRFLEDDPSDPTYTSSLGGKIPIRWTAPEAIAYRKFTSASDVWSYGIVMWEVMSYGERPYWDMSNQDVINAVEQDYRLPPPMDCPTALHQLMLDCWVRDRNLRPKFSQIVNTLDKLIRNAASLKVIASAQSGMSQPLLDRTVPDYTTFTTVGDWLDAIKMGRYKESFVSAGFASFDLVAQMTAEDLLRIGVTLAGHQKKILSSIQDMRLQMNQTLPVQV
In short: as §1

LIMK1(h) = target: T5, LIMK1(h) (Homo sapiens, UniProt P53667)
T5 construct: purchased Millipore
In short: as §1

SGK3(h) = target: T6, SGK3(h) (Homo sapiens, UniProt Q96BR1)
T6 construct: purchased Millipore
T6 sequence (Q96BR1 1-496): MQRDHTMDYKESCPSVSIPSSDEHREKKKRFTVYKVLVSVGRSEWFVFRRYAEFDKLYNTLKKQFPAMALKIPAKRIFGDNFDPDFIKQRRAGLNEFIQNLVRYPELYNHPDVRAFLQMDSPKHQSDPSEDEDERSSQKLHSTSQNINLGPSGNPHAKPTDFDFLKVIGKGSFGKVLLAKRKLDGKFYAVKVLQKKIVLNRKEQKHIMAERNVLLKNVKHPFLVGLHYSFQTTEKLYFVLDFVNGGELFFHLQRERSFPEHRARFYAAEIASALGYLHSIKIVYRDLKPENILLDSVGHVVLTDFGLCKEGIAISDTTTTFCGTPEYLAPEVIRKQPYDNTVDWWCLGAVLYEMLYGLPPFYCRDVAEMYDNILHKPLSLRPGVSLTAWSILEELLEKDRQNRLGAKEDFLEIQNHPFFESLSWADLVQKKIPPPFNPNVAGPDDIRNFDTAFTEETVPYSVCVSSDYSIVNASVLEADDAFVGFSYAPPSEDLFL
In short: as §1

CaMKIIγ(h) = CaMKIIγ(h) (Homo sapiens, UniProt Q13555)
In short: as §1

Abl(Q252H)(h) = Abl(Q252H)(h) (Homo sapiens, UniProt P00519, Q252H)
In short: as §1

FGFR4(h) = FGFR4(h) (Homo sapiens, UniProt P22455)
In short: as §1

Chain of CaMKIIγ(h) (Q13555 whole entry): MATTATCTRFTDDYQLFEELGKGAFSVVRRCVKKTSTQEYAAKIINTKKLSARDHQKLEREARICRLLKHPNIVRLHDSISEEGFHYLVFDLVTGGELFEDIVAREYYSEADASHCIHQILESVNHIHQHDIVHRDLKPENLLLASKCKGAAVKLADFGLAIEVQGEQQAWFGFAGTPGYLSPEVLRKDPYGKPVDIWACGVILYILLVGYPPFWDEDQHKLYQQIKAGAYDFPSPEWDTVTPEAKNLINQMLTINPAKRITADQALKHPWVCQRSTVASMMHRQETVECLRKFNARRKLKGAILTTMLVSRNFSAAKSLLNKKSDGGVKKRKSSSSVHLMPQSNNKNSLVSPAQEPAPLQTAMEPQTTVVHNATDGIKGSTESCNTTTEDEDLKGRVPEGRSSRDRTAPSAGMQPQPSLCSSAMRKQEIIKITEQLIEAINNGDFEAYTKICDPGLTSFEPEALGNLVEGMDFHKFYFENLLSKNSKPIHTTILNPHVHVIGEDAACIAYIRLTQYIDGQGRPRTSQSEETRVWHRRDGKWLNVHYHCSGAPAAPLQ
T5 sequence (P53667 whole entry): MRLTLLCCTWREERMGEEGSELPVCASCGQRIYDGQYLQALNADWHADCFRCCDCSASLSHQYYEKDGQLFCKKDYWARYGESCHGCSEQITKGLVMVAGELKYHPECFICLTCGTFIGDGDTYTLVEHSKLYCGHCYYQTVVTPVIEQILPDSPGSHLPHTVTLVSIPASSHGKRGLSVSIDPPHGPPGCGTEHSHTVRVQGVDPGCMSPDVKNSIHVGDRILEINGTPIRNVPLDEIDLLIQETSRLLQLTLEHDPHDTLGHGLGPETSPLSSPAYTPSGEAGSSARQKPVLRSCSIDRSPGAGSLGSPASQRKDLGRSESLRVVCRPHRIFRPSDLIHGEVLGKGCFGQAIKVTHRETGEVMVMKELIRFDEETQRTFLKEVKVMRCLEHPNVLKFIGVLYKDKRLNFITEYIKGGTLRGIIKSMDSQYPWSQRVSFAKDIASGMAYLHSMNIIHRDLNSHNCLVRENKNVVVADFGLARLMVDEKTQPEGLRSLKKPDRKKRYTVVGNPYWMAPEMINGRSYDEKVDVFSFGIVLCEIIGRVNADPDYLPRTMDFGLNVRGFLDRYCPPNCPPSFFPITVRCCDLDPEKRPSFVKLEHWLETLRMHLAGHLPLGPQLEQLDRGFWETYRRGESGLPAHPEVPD
T1 sequence (Q9UK32 whole entry): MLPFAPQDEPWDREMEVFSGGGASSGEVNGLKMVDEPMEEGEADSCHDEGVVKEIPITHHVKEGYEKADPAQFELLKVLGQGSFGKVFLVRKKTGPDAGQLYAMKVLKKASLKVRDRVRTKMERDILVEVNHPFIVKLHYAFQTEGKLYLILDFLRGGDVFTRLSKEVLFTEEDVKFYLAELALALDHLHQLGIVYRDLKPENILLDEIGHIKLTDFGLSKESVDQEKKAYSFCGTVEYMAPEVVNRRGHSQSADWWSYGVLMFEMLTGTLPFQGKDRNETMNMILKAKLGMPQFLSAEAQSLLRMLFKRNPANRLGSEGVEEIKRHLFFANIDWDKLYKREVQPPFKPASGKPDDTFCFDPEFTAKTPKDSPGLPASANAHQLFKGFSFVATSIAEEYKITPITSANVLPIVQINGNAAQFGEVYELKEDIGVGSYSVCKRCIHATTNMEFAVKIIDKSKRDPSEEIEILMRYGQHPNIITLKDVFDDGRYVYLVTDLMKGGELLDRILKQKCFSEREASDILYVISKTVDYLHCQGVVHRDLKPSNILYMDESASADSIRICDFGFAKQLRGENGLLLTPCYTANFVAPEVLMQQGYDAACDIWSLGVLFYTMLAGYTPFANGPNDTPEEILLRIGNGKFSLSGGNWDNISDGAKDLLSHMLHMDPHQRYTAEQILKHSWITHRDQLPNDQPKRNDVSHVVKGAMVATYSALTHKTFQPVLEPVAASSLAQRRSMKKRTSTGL

Sequence | % activity (Rsk4(h)) [%] | % activity (MST1(h)) [%] | % activity (Syk(h)) [%] | % activity (EphB3(h)) [%] | % activity (LIMK1(h)) [%] | % activity (SGK3(h)) [%] | % activity (CaMKIIγ(h)) [%] | % activity (Abl(Q252H)(h)) [%] | % activity (FGFR4(h)) [%]
FAKLAARLYRKALARQLGVAA [MMI-0300] | 90 | 14 | 24 | 62 | 88 | 10 | 5 | 82 | 28
HRRIKAWLKKIKALARQLGVAA (Mammal) [MMI-0500] | 29 | 3 | 5 | 79 | 87 | -3 | 3 | 40 | 3
KAFAKLAARLYRKALARQLGVAA [MMI-0400] | 91 | 6 | 9 | 47 | 92 | 8 | 3 | 98 | 19
YARAAARQARAKALARQLGVAA [MMI-0100] | 99 | – | – | – | – | 95 | – | – | –
YARAAARQARAKALNRQLGVA (Mammal) [MMI-0200] | 125 | 72 | 36 | 128 | – | 58 | 94 | – | 75
